First the molecules themselves.
B1: His6-Sso2 (cytosolic domain, a.a. 1–270) [yeast] / GST-tagged Sec9 C-terminal SNARE domain (a.a. 414–651) [yeast] (parent)
chain 1: MSNANPYENNNPYAENYEMQEDLNNAPTGHSDGSDDFVAFMNKINSINANLSRYENIINQIDAQHKDLLTQVSEEQEMELRRSLDDYISQATDLQYQLKADIKDAQRDGLHDSNKQAQAENCRQKFLKLIQDYRIIDSNYKEESKEQAKRQYTIIQPEATDEEVEAAINDVNGQQIFSQALLNANRRGEAKTALAEVQARHQELLKLEKTMAELTQLFNDMEELVIEQQENVDVIDKNVEDAQQDVEQGVGHTNKAVKSARKARKNKIRC
chain 2: EEARQQQEEDEAVDEIKQEIKFTKQSSVASTRNTLKMAQDAERAGMNTLGMLGHQSEQLNNVEGNLDLMKVQNKVADEKVAELKKLNRSILAVHVSNPFNSKRRRREREEQLKNRKIEEKLMREQTSQQLSQSTQRIEGAMNANNNISEVRERYQRKNVLEKAKRYQFENDEEDDEMELEIDRNLDQIQQVSNRLKKMALTTGKELDSQQKRLNNIEESTDDLDINLHMNTNRLAGIR

In one experiment the parent is B1. Description: GST pull-down time course (SDS-PAGE, Coomassie blue staining, band quantification). The settings on record: with GST-tagged Sec9 C-terminal SNARE domain (a.a. 414–651) [yeast]; time point 5 min; parent: 0; read off a plot.
Regarding chain 1 MSNANPYENNNPYAENYEMQEDLNNAPTGHSDGSDDFVAFMNKINSINANLSRYENIINQIDAQHKDLLTQVSEEQEMELRRSLDDYISQATDLQYQLKADIKDAQRDGLHDSNKQAQAENCRQKFLKLIQDYRIIDSNYKEESKEQAKRQYTIIQPEATDEEVEAAINGSSGGQIFSQALLNANRRGEAKTALAEVQARHQELLKLEKTMAELTQLFNDMEELVIEQQENVDVIDKNVEDAQQDVEQGVGHTNKAVKSARKARKNKIRC [chain 1 D170G V171S N172S Q174G], the response is 34%.

Staying with this experiment, now noted: with GST-tagged Sec9 C-terminal SNARE domain (a.a. 414–651) [yeast]; time point 10 min; parent: 9; read off a plot.
Take chain 1 MSNANPYENNNPYAENYEMQEDLNNAPTGHSDGSDDFVAFMNKINSINANLSRYENIINQIDAQHKDLLTQVSEEQEMELRRSLDDYISQATDLQYQLKADIKDAQRDGLHDSNKQAQAENCRQKFLKLIQDYRIIDSNYKEESKEQAKRQYTIIQPEATDEEVEAAINGSSGGQIFSQALLNANRRGEAKTALAEVQARHQELLKLEKTMAELTQLFNDMEELVIEQQENVDVIDKNVEDAQQDVEQGVGHTNKAVKSARKARKNKIRC [chain 1 D170G V171S N172S Q174G]: the response was determined as 67%.

Still in this experiment, the particulars now being: with GST-tagged Sec9 C-terminal SNARE domain (a.a. 414–651) [yeast]; time point 20 min; parent: 32; read off a plot.
With chain 1 MSNANPYENNNPYAENYEMQEDLNNAPTGHSDGSDDFVAFMNKINSINANLSRYENIINQIDAQHKDLLTQVSEEQEMELRRSLDDYISQATDLQYQLKADIKDAQRDGLHDSNKQAQAENCRQKFLKLIQDYRIIDSNYKEESKEQAKRQYTIIQPEATDEEVEAAINGSSGGQIFSQALLNANRRGEAKTALAEVQARHQELLKLEKTMAELTQLFNDMEELVIEQQENVDVIDKNVEDAQQDVEQGVGHTNKAVKSARKARKNKIRC [chain 1 D170G V171S N172S Q174G], the response turned out to be 79%.

Still in this experiment, the particulars now being: with GST-tagged Sec9 C-terminal SNARE domain (a.a. 414–651) [yeast]; time point 40 min; parent: 29; read off a plot.
In the case of chain 1 MSNANPYENNNPYAENYEMQEDLNNAPTGHSDGSDDFVAFMNKINSINANLSRYENIINQIDAQHKDLLTQVSEEQEMELRRSLDDYISQATDLQYQLKADIKDAQRDGLHDSNKQAQAENCRQKFLKLIQDYRIIDSNYKEESKEQAKRQYTIIQPEATDEEVEAAINGSSGGQIFSQALLNANRRGEAKTALAEVQARHQELLKLEKTMAELTQLFNDMEELVIEQQENVDVIDKNVEDAQQDVEQGVGHTNKAVKSARKARKNKIRC [chain 1 D170G V171S N172S Q174G], the response was determined as 100%.

Staying with this experiment, now noted: with GST-tagged Sec9 C-terminal SNARE domain (a.a. 414–651) [yeast]; time point 70 min; parent: 48; read off a plot.
As for chain 1 MSNANPYENNNPYAENYEMQEDLNNAPTGHSDGSDDFVAFMNKINSINANLSRYENIINQIDAQHKDLLTQVSEEQEMELRRSLDDYISQATDLQYQLKADIKDAQRDGLHDSNKQAQAENCRQKFLKLIQDYRIIDSNYKEESKEQAKRQYTIIQPEATDEEVEAAINGSSGGQIFSQALLNANRRGEAKTALAEVQARHQELLKLEKTMAELTQLFNDMEELVIEQQENVDVIDKNVEDAQQDVEQGVGHTNKAVKSARKARKNKIRC [chain 1 D170G V171S N172S Q174G], the response was found to be 92%.

Staying with this experiment, now noted: with GST-tagged Sec9 C-terminal SNARE domain (a.a. 414–651) [yeast]; time point 110 min; parent: 72; read off a plot.
Turning to chain 1 MSNANPYENNNPYAENYEMQEDLNNAPTGHSDGSDDFVAFMNKINSINANLSRYENIINQIDAQHKDLLTQVSEEQEMELRRSLDDYISQATDLQYQLKADIKDAQRDGLHDSNKQAQAENCRQKFLKLIQDYRIIDSNYKEESKEQAKRQYTIIQPEATDEEVEAAINGSSGGQIFSQALLNANRRGEAKTALAEVQARHQELLKLEKTMAELTQLFNDMEELVIEQQENVDVIDKNVEDAQQDVEQGVGHTNKAVKSARKARKNKIRC [chain 1 D170G V171S N172S Q174G], the response came to 96%.

Staying with this experiment, now noted: with GST-tagged Sec9 C-terminal SNARE domain (a.a. 414–651) [yeast]; time point 170 min; read off a plot.
Consider chain 1 MSNANPYENNNPYAENYEMQEDLNNAPTGHSDGSDDFVAFMNKINSINANLSRYENIINQIDAQHKDLLTQVSEEQEMELRRSLDDYISQATDLQYQLKADIKDAQRDGLHDSNKQAQAENCRQKFLKLIQDYRIIDSNYKEESKEQAKRQYTIIQPEATDEEVEAAINGSSGGQIFSQALLNANRRGEAKTALAEVQARHQELLKLEKTMAELTQLFNDMEELVIEQQENVDVIDKNVEDAQQDVEQGVGHTNKAVKSARKARKNKIRC [chain 1 D170G V171S N172S Q174G], for which the response came to 96%.

Staying with this experiment, now noted: with GST-tagged Sec9 C-terminal SNARE domain (a.a. 414–651) [yeast]; time point 240 min; parent: 100; read off a plot.
Turning to chain 1 MSNANPYENNNPYAENYEMQEDLNNAPTGHSDGSDDFVAFMNKINSINANLSRYENIINQIDAQHKDLLTQVSEEQEMELRRSLDDYISQATDLQYQLKADIKDAQRDGLHDSNKQAQAENCRQKFLKLIQDYRIIDSNYKEESKEQAKRQYTIIQPEATDEEVEAAINGSSGGQIFSQALLNANRRGEAKTALAEVQARHQELLKLEKTMAELTQLFNDMEELVIEQQENVDVIDKNVEDAQQDVEQGVGHTNKAVKSARKARKNKIRC [chain 1 D170G V171S N172S Q174G], the response stood at 100%.
